Experimental data as given in article doi:10.1101/2020.12.03.410779 (bioRxiv, 2020).

Molecular target: PDZ domain of mouse SNX27 (mouse, UniProt Q3UHD6 41-134)
Experiment: ITC

Kd: 700 nM
Binder: QEEWETVM [PTHR_(586-593) cargo peptide]
